Data on one substance can be found in paper PMC10844294.

The test deals with B.1.1.529 (BA.1) S1 + S2 trimer-His Recombinant Protein (SARS-CoV-2) (UniProt P0DTC2). In words: cryo-EM structure.

One may read the stoichiometry N as the number of molecules, sites or subunits per partner or assembly. As to “B.1.1.529 (BA.1) S1 + S2 trimer-His Recombinant Protein (from UniProt P0DTC2 324-533) (natural protein)”, the stoichiometry N worked out at 3.
